Laboratory results published in patent US9822156B2, “Amyloid beta expression constructs and uses therefor” (Whitehead Institute for Biomedical Research, priority 2014, dated 2017).

Legend:
[1] = test system: Rat embryonic cortical neurons; assay: […] ATP viability assay in neurons infected with lentiviral poly-Aβ constructs; format: cell-based; settings: three weeks post doxycycline-induction (2 μg/ml)
Description: Rat embryonic cortical neurons were infected with lentiviral poly-Aβ expression constructs to model poly-Aβ toxicity. Tetracycline (doxycycline)-inducible poly-Aβ (Aβ42-4X, Aβ42-6X, Aβ40-4X, Aβ40-6X, and Aβ42-Arctic-4X) viral constructs described in Example 5 were used to express poly-Aβ constructs in rat cortical neurons. In each expression construct, the poly-Aβ coding sequence is linked to an N-terminal insulin signal peptide. The poly-Aβ expression plasmids were packaged in lentiviral particles, which were generated by 293T cells as described in Example 3.
Rat cortical neurons were enriched from cortices dissected out of embryonic (E18) rat brains and enriched in adherent monolayer culture as described in Example 3. Purified lentiviral preparations at different MOI were used to infect these cortical neurons to express poly-Aβ transgenes. Three days post-infection, expression of poly-Aβ was induced by adding doxycycline (2 μg/ml) to the infected cultures.

293T cells = assay: TOXILIGHT cytotoxicity assay in stable doxycycline-inducible poly-Aβ 293T cell lines; format: cell-based; settings: 72-96 hours following doxycycline induction
Description: Similar to the poly-Aβ (Aβ40 or Aβ42_1X/4X/6X/8X) expression constructs in yeast (see Example 1), a poly-Aβ toxicity model was developed in mammalian cells. Stable cell lines with chromosomally-integrated tetracycline (doxycycline)-inducible […] transgenes (Aβ42-4X, Aβ42-6X, Aβ40-4X, Aβ40-6X and Aβ42-Arctic-4X) linked to an N-terminal insulin signal peptide were generated (FIGS. 13A-13B). These expression constructs were generated using the pLix402 lentiviral plasmid (FIG. 12). The poly-Aβ constructs were individually transfected into 293T cells along with the lentiviral packaging plasmid psPAX and the viral envelope-expressing plasmid mMD2.G using LIPOFECTAMINE® 2000 (Invitrogen) transfection reagent to generate lentivirus containing the poly-Aβ transgene. The virus was harvested from the supernatant of transfected 293T cells 2 and 3 days post-transfection and subsequently purified and concentrated using the LENTI-X™ Maxi Purification kit (Clontech) according to the manufacturer's instructions.
To generate stable cells harboring the expression transgene for the poly-Aβ constructs, 293T cells were infected using POLYBRENE® infection reagent (Sigma Aldrich), which is used to introduce retroviral vectors into mammalian cells. Infected cells were then selected using puromycin (2-10 μg/ml). Infected cells harboring the transgene survive this selection pressure whereas the control cells without the transgene die in 2-3 days. Aliquots of the selected cells were frozen in liquid nitrogen or maintained and propagated for further applications.
Expression of Aβ peptide from these stable cell lines was measured in the culture supernatant 72-96 hours following doxycycline induction (FIG. 13D). Toxicity was measured 72-96 hours following doxycycline induction using a TOXILIGHT™ cytotoxicity assay (Lonza) as described in Example 2.

B1: Aβ42-Arctic-4X: doxycycline-inducible construct, insulin signal peptide and four copies of Aβ42 E22G, SEQ ID NO:37 (protein)
chain: MALWMRLLPLLALLALWGPDPAAADAEFRHDSGYEVHHQKLVFFAGDVGSNKGAIIGLMVGGVVIARRDAEFRHDSGYEVHHQKLVFFAGDVGSNKGAIIGLMVGGVVIAKRDAEFRHDSGYEVHHQKLVFFAGDVGSNKGAIIGLMVGGVVIARRDAEFRHDSGYEVHHQKLVFFAGDVGSNKGAIIGLMVGGVVIA
- cytotoxicity (viability by ATP levels) [1]: profound cytotoxicity compared to Aβ40-4X
- Aβ peptide-mediated cytotoxic effect (adenylate kinase release), rank order (293T cells): Aβ42-6X≧Aβ42-Arctic-4X≧Aβ42-4X≧AB40-6X≧Aβ40-4X
